Measured values reported in the array DNA melting data of Ke et al..

Assay: melting temperature; melt of duplexes
Details: sodium 0.0675 M; strand 1 µM
Work on “CGACGTGCTGGATGTGCTG+CAGCACATGCAGCACGTCG ((((((((((.((((((((+)))))))).))))))))))” yielded a Tm of 61.3 °C.
Work on “CGACGTGCTGGATGTGCTG+CAGCACATTAAGCACGTCG (((((((((..((((((((+))))))))..)))))))))” yielded a Tm of 54.8 °C.
“CGACGTGCATTATGTGCTG+CAGCACATAGCGCACGTCG ((((((((..(((((((((+)))))))))..))))))))” showed a Tm of 49.4 °C.
In the case of “CGACGTGCAGTATGTGCTG+CAGCACATGCAGCACGTCG ((((((((.(.((((((((+)))))))).).))))))))”, the Tm is reported as 54.7 °C.
Work on “CGACGTGCGCGATGTGCTG+CAGCACATTTGGCACGTCG ((((((((...((((((((+))))))))...))))))))” yielded a Tm of 49.7 °C.
For “CGACGTGCGACATGTGCTG+CAGCACATCTCGCACGTCG ((((((((((.((((((((+)))))))).))))))))))”, the Tm was 55.4 °C.
Substance “CGACGTGCGCGATGTGCTG+CAGCACATTACGCACGTCG (((((((((..((((((((+))))))))..)))))))))” has a Tm of 54.9 °C.
For “CGACGTGCGCGATGTGCTG+CAGCACATGAAGCACGTCG ((((((((...((((((((+))))))))...))))))))”, the Tm was 54.4 °C.
Work on “CGACGTGCTCGATGTGCTG+CAGCACATGGAGCACGTCG ((((((((((.((((((((+)))))))).))))))))))” yielded a Tm of 59.3 °C.
Substance “CGACGTGCTGTATGTGCTG+CAGCACATATCGCACGTCG ((((((((..(((((((((+)))))))))..))))))))” has a Tm of 50.9 °C.
In the case of “CGACGTGCTGCATGTGCTG+CAGCACATAGAGCACGTCG (((((((((..((((((((+))))))))..)))))))))”, the Tm is reported as 52.3 °C.
In the case of “CGACGTGCTAGATGTGCTG+CAGCACATAAGGCACGTCG ((((((((...((((((((+))))))))...))))))))”, the Tm is reported as 51.4 °C.
With “CGACGTGCAGGATGTGCTG+CAGCACATTTAGCACGTCG ((((((((...((((((((+))))))))...))))))))” the Tm was 50.3 °C.
“CGACGTGCCCCATGTGCTG+CAGCACATCGGGCACGTCG ((((((((((.((((((((+)))))))).))))))))))” showed a Tm of 57.2 °C.
For “CGACGTGCGGGATGTGCTG+CAGCACATGTAGCACGTCG ((((((((...((((((((+))))))))...))))))))”, the Tm was 53.7 °C.
Work on “CGACGTGCGGCATGTGCTG+CAGCACATAGGGCACGTCG ((((((((...((((((((+))))))))...))))))))” yielded a Tm of 49.5 °C.
With “CGACGTGCTCGATGTGCTG+CAGCACATATCGCACGTCG ((((((((...((((((((+))))))))...))))))))” the Tm was 47.8 °C.
Work on “CGACGTGCCCCATGTGCTG+CAGCACATAATGCACGTCG ((((((((...((((((((+))))))))...))))))))” yielded a Tm of 45.8 °C.
Substance “CGACGTGCATTATGTGCTG+CAGCACATAACGCACGTCG ((((((((.((((((((((+)))))))))).))))))))” has a Tm of 53.8 °C.
With “CGACGTGCTATATGTGCTG+CAGCACATGAGGCACGTCG ((((((((...((((((((+))))))))...))))))))” the Tm was 52 °C.
Work on “CGACGTGCAACATGTGCTG+CAGCACATAACGCACGTCG ((((((((...((((((((+))))))))...))))))))” yielded a Tm of 48.2 °C.
In the case of “CGACGTGCGATATGTGCTG+CAGCACATTACGCACGTCG (((((((((..((((((((+))))))))..)))))))))”, the Tm is reported as 54.7 °C.
“CGACGTGCATAATGTGCTG+CAGCACATAGAGCACGTCG ((((((((...((((((((+))))))))...))))))))” gave a Tm of 48.7 °C.
Work on “CGACGTGCTCGATGTGCTG+CAGCACATTAAGCACGTCG (((((((((..((((((((+))))))))..)))))))))” yielded a Tm of 51.9 °C.
Substance “CGACGTGCTGTATGTGCTG+CAGCACATGCGGCACGTCG ((((((((.(.((((((((+)))))))).).))))))))” has a Tm of 55.7 °C.
For “CGACGTGCGCTATGTGCTG+CAGCACATGTTGCACGTCG ((((((((...((((((((+))))))))...))))))))”, the Tm was 49.6 °C.
With “CGACGTGCCTCATGTGCTG+CAGCACATATTGCACGTCG ((((((((...((((((((+))))))))...))))))))” the Tm was 46.7 °C.
Work on “CGACGTGCTAAATGTGCTG+CAGCACATCGAGCACGTCG (((((((((..((((((((+))))))))..)))))))))” yielded a Tm of 51.8 °C.
Substance “CGACGTGCTGGATGTGCTG+CAGCACATCTTGCACGTCG ((((((((..(((((((((+)))))))))..))))))))” has a Tm of 56.6 °C.
With “CGACGTGCTGCATGTGCTG+CAGCACATGGCGCACGTCG ((((((((..(((((((((+)))))))))..))))))))” the Tm was 55.3 °C.
Substance “CGACGTGCCTCATGTGCTG+CAGCACATAATGCACGTCG ((((((((.(.((((((((+)))))))).).))))))))” has a Tm of 48 °C.
“CGACGTGCGGTATGTGCTG+CAGCACATTTGGCACGTCG ((((((((...((((((((+))))))))...))))))))” gave a Tm of 49.9 °C.
Work on “CGACGTGCTCAATGTGCTG+CAGCACATAGGGCACGTCG ((((((((.(.((((((((+)))))))).).))))))))” yielded a Tm of 52.8 °C.
For “CGACGTGCGCAATGTGCTG+CAGCACATGCAGCACGTCG ((((((((...((((((((+))))))))...))))))))”, the Tm was 57.9 °C.
Substance “CGACGTGCGCGATGTGCTG+CAGCACATCACGCACGTCG (((((((((.(((((((((+))))))))).)))))))))” has a Tm of 62.2 °C.
In the case of “CGACGTGCGCCATGTGCTG+CAGCACATTAAGCACGTCG ((((((((...((((((((+))))))))...))))))))”, the Tm is reported as 52.1 °C.
In the case of “CGACGTGCTTCATGTGCTG+CAGCACATCTCGCACGTCG ((((((((...((((((((+))))))))...))))))))”, the Tm is reported as 47 °C.
With “CGACGTGCTACATGTGCTG+CAGCACATTGTGCACGTCG ((((((((...((((((((+))))))))...))))))))” the Tm was 48.7 °C.
